One experiment concerns CFU-GM. Conditions: colonies with >50 cells; G-CSF 10 μg/kg daily for five days and/or dextran sulfate 15 mg/kg once on day 5 (Han 1998); cited from earlier work.
The test system of the next experiment is peripheral blood cells. Nature of the experiment: combination with G-CSF, hematological analysis. Format: in vivo, mice. Conditions: G-CSF 2×2.5 μg/day s.c. for 2 days. On the procedure: G-CSF (NEUPOGEN®, Amgen, Holland) was supplied as sterile isotonic aqueous solution at 0.3 mg/mL and was diluted in normal saline to a concentration of 50 μg/mL. G-CSF was administered at a dose of 2.5 μg as a single subcutaneous injection, morning and evening Day -2 and Day -1. Dextran sulfate of different average molecular weights were used:
Standard treatment of patients prior to apheresis is based on daily injections of G-CSF for up to one week. Clinically dextran sulfate could be used in combination with G-CSF. In a study in mice 2.5 μg/animal of G-CSF was administered twice daily (8 hrs apart) for 2 days (Broxmeyer 1999).

B1: G-CSF: granulocyte-colony stimulation factor (NEUPOGEN, Amgen) (protein, chains of the INN, looked up)
chain: MTPLGPASSLPQSFLLKCLEQVRKIQGDGAALQEKLCATYKLCHPEELVLLGHSLGIPWAPLSSCPSQALQLAGCLSQLHSGLFLYQGLLQALEGISPELGPTLDTLQLDVADFATTIWQQMEELGMAPALQPTQGAMPAFASAFQRRAGGVLVASHLQSFLEVSYRVLRHLAQP
For B1, in the experiment on CFU-GM, the CFU-GM level is recorded as 17.1±1.9 colonies. Besides, in the experiment with peripheral blood cells, the “number of WBC compared to normal” value is on record as “increased the number of WBC”.

The values above are taken from patent publication US10258642B2, “Dextran sulfate for use in mobilization of cells” (TX MEDIC AB, priority 2013, dated 2019).
